The results in this text go back to the nanobody polyreactivity screen of Harvey et al. (2022).

The data set is described as follows: yeast display, Sf9 membrane polyspecificity reagent, FACS + sequencing; frameworks hold sequencing errors. In outline: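 Using colony PCR, genes from sorted yeast display clones were amplified, then sequenced on MiSeq at 2 × 250 and filtered by CDR length. The clones had been stained with 10% biotinylated, detergent-solubilized Sf9 membrane reagent for 1 hour at 4 °C and sorted by FACS into low and high (top ~1%) gates on anti-HA and streptavidin fluorescence. Polyreactivity labels come from the gate of origin.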
As for “QVQLAESGGALVQAGCSLRLSCSASGYTSAKNVMGWYIQAPGKERELVAAISRSGGRTYYADSVKGRFTISRDNAKNSVYLQMNSLKPEDTAVYYCAARSATNHADDYYYWGQGTQVTVSS”, the “polyreactivity (PSR sort gate)” value is recorded as “high polyreactivity”.
Consider “QVQLVESGGGLVQAGGSLRLSCAASGSIFHFNAMGWYRQAPGKERELVATITSSGSSTYYADSVKGRFTISRDNAKNTVYLQMNSLKPEDTAVYYCAAGWFWQMDYWGQGTQVTVSS”, for which the “polyreactivity (PSR sort gate)” value is on record as “low polyreactivity”.
In the case of “QVQLVESGGGLVQAGGSLRITCAASGSIFTGNAMGWYRQAPGKERELVAAISSSGGSTYYADSVKGRFTLSRDNAKNTVYLQMNSMKPEDTAVYYCAAYNNFLQYDYWGQGTQVTVSS”, the “polyreactivity (PSR sort gate)” value is given as “low polyreactivity”.
Turning to “QVQLVESGGGLVQAGGSLRLSCAASGSIFWYAMGWYRQAPGKERELVATITSGASTTYADSVKGRFTISRDNPKNTVYLQMNSLKPEDTAVYYCAKGFTYPQTRFGYWGQGTQVTVSS”, the “polyreactivity (PSR sort gate)” value is on record as “low polyreactivity”.
As to “QVQLVESGGGLVQAGGSLRLSCAASGSIFGAYAMGWYRQAPGKERELVATITLRDGSTYYADSVKGRFTISRDNAKNTVYLQMNSLKPEDTAVSYCATYYSAINYGWSKTILYDYWGQGTQVTVSS”, the “polyreactivity (PSR sort gate)” value is listed as “low polyreactivity”.
The value for “QVQLVESGGGLVQAGGSLRLSCAASGFIFFRYAMGWYRQAPGKERELVATITSSGRTNYADSVKGRFTISRDNAKNTVYLQMNSLKPEDTAVYYCAAQRTGARRYRYDSWGQGTQVTVSS” was “high polyreactivity”; that for “QVQLVESGGGLVQAGGSLRLSCAASGFTFVSNDMGWYRQAPGKERELVAVITTGDTSTSYADSVKGRFTISRDNAKNTVYLQMNSLKPEDTAVYYCAADPHDTVRHDALVELEYWGQGTQVTVSS” was “low polyreactivity”; that for “QVQLVESGGGLVQAGGSLRLSCAASGSIFSGYAMGWYRQAPGKESDLVAAISGSGGSTFYADSVKGRFTISRDYAKNTVYLQMNSLKPEDTAVYFCAARRIAPYGRYDYWGQGTQVTVSS” was “low polyreactivity”.
The value for “QVQLVESGGGLVQAGGSLRLSCAASGSTFSRYAMGWYRPAPGKERELVAAISGTDDSTYYADSVKGRFTISRDNAKNTVYLQMNSLKPEDTAVYYCAARLVESRYGFGYEYYYWGQGTQVTVSS” was “low polyreactivity”; that for “QVQLVESGGGLVQAGGRLRLSCAASGFTFYYNDMGWYRQAPGKERELVAAITWSGGSTYYADSVKGRFTISRDNAKNTVYLQMNSLKPEDTAVYYCNARYWVHGYRYYYWGQGTQVTVSS” was “high polyreactivity”.
Consider “QVQLVESGGGLVQAGGSLRLSCAASGRTFYHYVMGWYRQEPGKERELVAAITSRGGSTYYADSVKGRFTISRDNAKNTVYLQMNSLKPEDTAVYYCAARLNYGNKYDYWGQGTQVTVSS”, for which the “polyreactivity (PSR sort gate)” value is recorded as “high polyreactivity”.
Regarding “QVQLVESGGGLVQAGGSLRLSCAASGSTFSSYGMGWYRQAPGKERELVAAITSSGGSTYYADSVKGRFTISRDNAKNTVYLQMNSLKPEDTAVYYCAASDVIFWLYYYWGQGTQVTVSS”, the “polyreactivity (PSR sort gate)” value is “low polyreactivity”.
For the sequence “QVQLVESGGGSVQAGGSLRLSCAASGSIYYYAMGWYIQAPGKERELVAAISRSGGSTYYADSVKGRFTISRDNAKNTVYLQMNCLKPEDTAVYYCAKGYRGYSYGYCGQGTQVTVSS”, the “polyreactivity (PSR sort gate)” value is on record as “high polyreactivity”.
On to “QVQLVESGGGLVQAGGSLSLMCAASGRTLRSYAMGWYRQAPGKEMEFVASISRSGGSTYYADSVKGRFTISRDNAKNTVYLQMNSLKPEDTAVYYCAAGVRYPYRYYYWGQGTQVTVSS”, for which the “polyreactivity (PSR sort gate)” value is given as “high polyreactivity”.
As to “QVQLVESGGGLVQAGGSLRISCAASGSIFDRNAMGWYRQAPGKERELVAGISSGGGTNYADSVKGRFTISRDNAKNTVYFQMNSLKPEDTAVYYCAVYRYLSNRVKYDYWGQGTQVTVSS”, the “polyreactivity (PSR sort gate)” value is “low polyreactivity”.
With “QVQRVESGGGLVQAGGSLRLSCAASGSTFPRNAMGWYRQAPGKEREFVAAISYSGGRTYYADSVKGRFTISRDNAKNTVYLQMNSLKPEDTAVYYCAAQPYSHVRGKSYGYWGQGTQVTVSS”, the “polyreactivity (PSR sort gate)” value is on record as “high polyreactivity”.
Regarding “QVQLVESGGGLVQAGGSLRLSCAASGRIFPWNTMGWYRQAPGKERELVAGINNGDRTYYADSVKGRFTISRDNENNTVYLQMNSLKPEDTAVYYCAARSPPSAYTYTTWEYDYWGQGTQVTVSS”, the “polyreactivity (PSR sort gate)” value is recorded as “low polyreactivity”.
With “QVQLVESGGGLVQAGGSLRLSCAASGLTFAVYAMGWYRQAPGKERELVASITRSGGSTYYADSVKGRFTISRDNAKNTVYLQMNSLKPEDTAVYYCAAQTIYSGRYYYYSRYDYWGQGTQVTVSS”, the “polyreactivity (PSR sort gate)” value is reported as “high polyreactivity”.
Regarding “QVQLVESGGCLVKAGGSLRLSSAASGSTFYYYAMGWYRQAPGKERELVAAITVNGGSTYYADSVKGRFTISRDNANNTVYLQMNSLKPGVTAVYYCAADDTYWVYPYTYSTYEYWGQGNQVTVSS”, the “polyreactivity (PSR sort gate)” value was “low polyreactivity”.
“QVQHVESVGGLVQAGGSLRLSCAASGRIFNYNSMGWYRLAPVKERELVAVITSVDSTNYADSVKGRFTISRDNAKNTVYLQMNSLKQEDTAVYYCASEYYSIRYGPHSIEVYCMEYWGQGTQVTVSS”: the “polyreactivity (PSR sort gate)” value is on record as “low polyreactivity”.
On to “QVQLVESGGGLVQAGGSLRLSCAASGIIFRVYAMGWYRQAPGKERELVAAITKGGGRTYYADSVKGRFTISRDIAKNTVYLQMNCLIPEDTAVYYCAARSSSRFEYWGQGTEVTVSS”, for which the “polyreactivity (PSR sort gate)” value is “high polyreactivity”.
Turning to “QVQLVESGGGLVQAGGSLSLSCAASGFTFFYNAMGWYRQAPGKERELVASITVSTSGTDYADSVKGRFTISLDNAKNTVYLQMNSLKPEDTAVYYCATDQVLVYSDLQDTAYYWGQGTQVTVSS”, the “polyreactivity (PSR sort gate)” value was “low polyreactivity”.
In the case of “QVQLVESGGGLVQAGVSLRLSCAASGSIFGYYAMGWYRQAPGKERELVAAINYSGVSTYYADSVKGRFTISRDNAKNTVYLQMNSLKPDDTAVYYCAAKGRKSVYSRNSWGQGTQVTVSS”, the “polyreactivity (PSR sort gate)” value is on record as “high polyreactivity”.
Regarding “QVQLVESGGCLVQAGGSLRLSCAASGFTFSDNSMGWYRQAHGKERELVATISQSSGSTSYADSLKGRFTISRDNAKNTVYLQMNSLKPEDTAVYYCAKRRLFYWGLGTQVTVSS”, the “polyreactivity (PSR sort gate)” value is “low polyreactivity”.
As for “QVQLVESGGGLVQAGGSLRLICAASGRTFILYTMGWYRQAPGKERELVAAITTGGSTSYADSVKGRFTISRDNAKNTVYLQMNSLKPEDTAVYNWAADTVGYSWRWFTWYEMGYWGQGTQVTVSS”, the entry is “low polyreactivity”; as for “QVQLVESGGGLVQAGGSLRLSCAASGSTLNSYVMGWYRQAPGKERELVATIRSGSSTNYADSVNGRFTISRDNAKNTVYLQMNSLKPEDTAVYYCAADAYSLCYDSWGQGTQVTVSS”, “low polyreactivity”; as for “QVQLVESGGGLVQAGGSLRLSCAASGSTFQINAMGWYRQATGTERELGAAIDGGGDTYYADSVKGRFTISRDNAKNTFYLQMNSLKPEDTAVYYCNARSWARKSNGGSRIRYDYWGQGTQVTVSS”, “low polyreactivity”.
For the sequence “QVQLVESGGGLVQAGGSLRLSCAASGYIFAGNAMGWYRQAPGKERELVAVITRGGRTYYADSVKGRFTISRDNAKNTVYLQMNSLKPEDTAVYYCAKLVSLAGRIYGYWGQGTQVTVSS”, the “polyreactivity (PSR sort gate)” value is “high polyreactivity”.
In the case of “QVQLVESGGGLVQAGGSLRLSCAASGRTFWYYTMGWYRQAPGKERELVAAISGSGGRTYYADSVKGRFTISRDNAKNTVYLQMNSLKPEDTAVYYCAARRAYFVAYIYDRDYWGQGTQVTVSS”, the “polyreactivity (PSR sort gate)” value was “high polyreactivity”.
With “QVQLVESGGGLVQAGGSLRLSCAHSASNFGIYAMGWYRQAPGKERELVAPITWYGTSTYYADSVKGRFTISRDNSKNSVYLQMNSLKPEDTAVYYCATAYIQVSATFYEYEYWGQGTQVTVSS”, the “polyreactivity (PSR sort gate)” value is “low polyreactivity”.
Consider “QFQLVESGGGLVQAGGSLRLSCAASGRISYAYAMGWYRQAPGKEREFVAAISGSGGSTYYADSVKGRFTISRDNAKKTVYLQMNSLKPEDTAVYYCDAGSGEYYGGKRYYWGQGTQVTVSS”, for which the “polyreactivity (PSR sort gate)” value was “low polyreactivity”.
For “QVQLVESGGGLVQAGGSLRLSCAASGFIFLHYAMGWYRQAPGKERELVAAISSSGGRTYYADSVKGRFSISRDNAKNTVYLQMNSLKPEDTAVYYCAAEAYPWYVPYDYWGQGTQVTVSS”, the “polyreactivity (PSR sort gate)” value is reported as “high polyreactivity”.
As for “QVQLVESGGGLVQAGGSLRLSCAASGFIFVYYAMGWYRQAPGKERELVAAISRASSTSYADSVKGRFTISRDNAKNTVYLQMISLKPEDTAVYYCAAVYYGGFSDYDYWGQGTQVTVSS”, the entry is “low polyreactivity”.
For the sequence “QVQLVESGGGLVQAGGSLRLSCAASGSTFDYYAMGWYRQAPGKERELVAAITSTGRTYYADSVKGRFTISRDNAKNTVYLQMNSLKPEDTAVYYCAADLPWGPLFDYWGQGTQVTVSS”, the “polyreactivity (PSR sort gate)” value is “low polyreactivity”.
As for “QVKLVESGGGLVQAGGSLRLSCAASGSIFYQYAMGGNRQAPGKERELVAVINRSGSSTYYADSVKGRFTISRDNAKNTVYLQMNSLKPEDTAVYYCAGASKYSEYNYWGQGTQVTVSS”, the entry is “high polyreactivity”; as for “QVQLVESGGGLVQAGGSLRLSCAPSGRILRGYAMGWYRQAPGKDRELVAAISRRGGSTRYADSVKGRFTISRDNAKNTVYLQMNSLKPEDTAVYYCAPRYHPWCYDYWGQGTQVTVSS”, “high polyreactivity”.
“QVQLVESVGGLVQAGGSLRLSCAASYAMAWYRQAPGKERELVATITRTDRTNYADSVKGRFTISRDNAMNTVYFQMNSLKPEDTAVYDCNKVEWSAPGDSRKYGYWGQGTQVTVSS”: the “polyreactivity (PSR sort gate)” value is on record as “low polyreactivity”.
As for “QVQLVESGGGLVQAGGSLRLSCAASGRIFTYYGMGWYRQAPGKEWELVAAISSSGDSTFYADSVKGRFTISRDNAKNTVYLQMNSLKPEDTAVYYCAADYYYVWYDYWGQGTQVTVSS”, the entry is “low polyreactivity”; as for “QVQLVESGGGLVQAGGSLRLSCAASGSIFEWYAMGWYRQAPGKERELVAAISSSGTSTYYADSVKGRFTISRDNAKNTVYLQMNSLKPEDTAVYYCNTDLSRLSQHDYWGQGTQVTVSS”, “low polyreactivity”.
Turning to “QVQLVESGGGLVQAGGSLRLSCAASGSIFNYYDMGWYRQAPGKERELVAAIDLTGGTTYYADSVKGRFTISRDNAKNTVYLQMNSLKPEDTAVYYCAAQYIRSSWWGYDYWGQGTQVSVSS”, the “polyreactivity (PSR sort gate)” value is given as “low polyreactivity”.
The value for “QVQLVESWGGLVQAGGSLRLSCAASGSTFASYVMGWSRQAPGKERELVAAISRSGGSTYYADSVKGRFTISRDNAKYTVYLQMNSLKPEDTAVYYCNAPYLIYKKGRYDYWGQGTQVTVSS” was “high polyreactivity”.
